Results reported in patent US8138307 (CEDARS SINAI MEDICAL CENTER, dated 2012).

What was measured:
[1] = target: T1, GAL4 activation domain-MP36a fusion (pGAD10 clone MP36a) (UniProt P04386 768-881); experiment: yeast two-hybrid liquid assay (β-galactosidase)
T1 construct: Prey clone from a human brain cDNA library

[2] = target: T2, GAL4 activation domain-MP23a fusion (pGAD10 clone MP23a, partial synapsin-like protein) (human); experiment: yeast two-hybrid liquid assay (β-galactosidase)
T2 construct: Partial clone; also called SLP (MP23a)
T2 chain: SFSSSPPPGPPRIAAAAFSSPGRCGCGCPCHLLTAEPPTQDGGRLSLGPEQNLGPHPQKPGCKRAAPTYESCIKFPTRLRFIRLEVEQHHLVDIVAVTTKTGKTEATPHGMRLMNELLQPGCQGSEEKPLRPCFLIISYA

fold β-galactosidase activity over negative control vector pGBT9 [1]: ~20 fold
fold β-galactosidase activity over negative control vector pGBT9 [2]: ~30 fold
B1: GAL4 binding domain-parkin(1-465) fusion encoded by pGBT9-parkin(1-465) (other, UniProt P04386 1-147, looked up)
chain: MKLLSSIEQACDICRLKKLKCSKEKPKCAKCLKNNWECRYSPKTKRSPLTRAHLTEVESRLERLEQLFLLIFPREDLDMILKMDSLQDIKALLTGLFVQDNVNKDAVTDRLASVETDMPLTLRQHRISATSSSEESSNKGQRQLTVSMIVFVRFNSSHGFPVEVDSDTSIFQLKEVVAKRQGVPADQLRVIFAGKELRNDWTVQNCDLDQQSIVHIVQRPWRKGQEMNATGGDDPRNAAGGCEREPQSLTRVDLSSSVLPGDSVGLAVILHTDSRKDSPPAGSPAGRSIYNSFYVYCKGPCQRVQPGKLRVQCSTCRQATLTLTQGPSCWDDVLIPNRMSGECQSPHCPGTSAEFFFKCGAHPTSDKETSVALHLIATNSRNITCITCTDVRSPVLVFQCNSRHVICLDCFHLYCVTRLNDRQFVHDPQLGYSLPCVAGCPNSLIKELHHFRILGEEQYNRYQQYGAEECVLQMGGVLCPRPGCGAGLLPEPDQRKVTCEGGNGLGCGFAFCRECKEAYHEGECSAVFEASGTTTQAYRVDERAAEQARWEAASKETIKKTTKPCPRCHVPVEKNGGCMHMKCPQPQCRLEWCWNCGCEWNRVCMGDHWFDV
notes: Yeast two-hybrid bait expressed in yeast strain Y190; also called parkin bait
